The values below come from PMC11962071 (Nature Communications, 2025).

The target of assay [1] is Drosophila melanogaster calmodulin (dCaM), recombinant (Drosophila melanogaster, UniProt P62152 1-149). Kind of assay: ITC. For orientation: Isothermal titration calorimetry measures the heat released or taken up as one component is titrated into another.
Assay [2] addresses Mus musculus calmodulin (mCaM), recombinant (Mus musculus, UniProt P0DP27 1-149). Kind of assay: crystal structure.

Take MDENAIRAAIFEQKWYRRHQARREM (domain or fragment) [RDGC IQ (aa 1-25) I12E]: in assay [1], the “fold decrease in affinity against the wild type” value was 236 fold.
Take AAALIQRWYRRYMARLEM [mPPEF2 IQ (aa 22-39)]: the binding result in assay [2] is “binds”.
